From patent US20190085033A1

How the values were obtained:
[1] = biological target: CD4 on human CD4+ T cells (human) (UniProt P01730); experiment: flow cytometry, trimer labelled with two fluorescent probes on human CD4+ T cells, 30 mins
BG505 SOSIP T332N gp140 = experiment: SPR; conditions: Fab
[2] = biological target: BG505-gp120 9MUTB (7MUT+N135R/Q328M) (HIV-1, strain BG505); experiment: SPR, monomeric gp120

## BG505 SOSIP T332N gp140 (other; other documents disagree on this pair)
[1]
  percentage of cells bound (double-positive population): 99.1%

## PGT121 Fab
BG505 SOSIP T332N gp140
  Kd: 26 nM

## PGT121 (antibody)
[2]
  Kd: 1.5 nM
